From publication PMC3462767, “Engineering a Disulfide Bond in the Lid Hinge Region of Rhizopus chinensis Lipase: Increased Thermostability and Altered Acyl Chain Length Specificity” (PLoS ONE, 2012)

Assays:
[1] = tested on: CC(=O)Oc1ccc([N+](=O)[O-])cc1; test: purified protein; settings: free enzyme; emulsified substrate
[2] = tested on: CCCCCCCCCCCCCCCC(=O)Oc1ccc([N+](=O)[O-])cc1; test: purified protein; settings: free enzyme; emulsified substrate
[3] = tested on: CC(=O)Oc1ccc([N+](=O)[O-])cc1; test: p-nitrophenol release, Lineweaver-Burk; type: biochemical, Rhizopus microsporus; settings: RCLCYS, engineered disulfide C95-C214; free enzyme; emulsified substrate
Text: (§1) p-nitrophenol release, Lineweaver-Burk on RCL (R. chinensis lipase)

[4] = tested on: CCCCCCCCCCCCCCCC(=O)Oc1ccc([N+](=O)[O-])cc1; test: p-nitrophenol release, Lineweaver-Burk; type: biochemical, Rhizopus microsporus; settings: RCLCYS, engineered disulfide C95-C214; free enzyme; emulsified substrate
Text: as §1

Substance	Km [1] [µM]	kcat [1] [s⁻¹]	Km [2] [µM]	kcat [2] [s⁻¹]	Km [3] [µM]	kcat [3] [s⁻¹]	Km [4] [µM]	kcat [4] [s⁻¹]
RCL (R. chinensis lipase) (Rhizopus microsporus var. chinensis)	295 ± 6	17.7 ± 0.2	304 ± 7	18.9 ± 0.4	–	–	–	–
RCL (R. chinensis lipase) (Rhizopus microsporus var. chinensis; F215C/F334C)	–	–	–	–	298 ± 8	17.3 ± 0.2	450 ± 6	18.4 ± 0.2
